B1: GvpF fused to NGFP or CGFP (split-GFP) [Halobacterium salinarum PHH1] / GvpA fused to NGFP or CGFP (split-GFP) [Halobacterium salinarum PHH1] (parent complex)
chain 1: MTENLYTYGIIEQEDLELDVEGVAGAEQVYTVDYKTLSAVVSDIDTTDPERTDEDVEAHNNVLQEVLKHEEERTVVPMSFGMAFKSARTLKGVLRGARRALRSTLNDIEGTVELGVKILGPGDDTVPREEIQENVTDQLADLSINETENDLFTDRLIINKSYLVDFEKRDAFDSAIDDVEAEYDELTIQYTGPWPPYNFVDIHIGAEQQQGGR
chain 2: MAQPDSSGLAEVLDRVLDKGVVVDVWARVSLVGIEILTVEARVVAASVDTFLHYAEEIAKIEQAELTAGAEAAPEA

In the assay the parent is B1. The assay is described as follows: split-GFP; in Hfx. volcanii; FN fusion protein used as interaction partner; two biological and three technical replicates; parent: 20; read off a plot.
As for chain 2 A41E, the response is around 19 relative fluorescence.

Consider chain 2 D14A, for which the response is around 13 relative fluorescence.

As for chain 2 A46Y, the response was around 11 relative fluorescence.

With chain 2 R42E, the response is around 12 relative fluorescence.

As to chain 2 R42A, the response is around 12 relative fluorescence.

As for chain 2 T38A, the response was around 13 relative fluorescence.

chain 2 A64Y: the response is around 14 relative fluorescence.

Regarding chain 2 E57A, the response is around 12 relative fluorescence.

Take chain 2 A27E: the response was around 5.2 relative fluorescence.

With chain 2 H53A, the response was around 12 relative fluorescence.

With chain 2 A45Y, the response was around 9 relative fluorescence.

Take chain 2 W26A: the response was around 19 relative fluorescence.

Consider chain 2 V29D, for which the response is around 19 relative fluorescence.

On to chain 2 L52E, for which the response is around 19 relative fluorescence.

Take chain 2 D5A: the response is around 10 relative fluorescence.

Take chain 2 G33V: the response was around 5.6 relative fluorescence.

Consider chain 2 K19D, for which the response was around 5.4 relative fluorescence.

On to chain 2 K19A, for which the response was around 9.8 relative fluorescence.

Consider chain 2 R15A, for which the response was around 5.3 relative fluorescence.

On to chain 2 I61A, for which the response was around 16 relative fluorescence.

As to chain 2 L17A, the response was around 13 relative fluorescence.

Take chain 2 E11A: the response is around 11 relative fluorescence.

In the case of chain 2 Y54A, the response was around 14 relative fluorescence.

chain 2 E65A: the response is around 13 relative fluorescence.
